This data set deals with Escherichia coli TOP10. Briefly: shrunken log2 fold change of peptide-encoding DNA abundance (4.5 h post-induction vs induction); higher = less antimicrobial activity (less host growth inhibition). The settings on record: time post-induction: 4.5 h; library: site-saturation at positions 5, 18, 19, 20.
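Note: peptides expressed intracellularly from a pBAD plasmid library in pooled LB shake-flask culture, induced with 0.3% L-arabinose, DNA abundance read by NGS, three biological replicates, DESeq2 with apeglm shrinkage.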

Turning to RRIRHRPPRLPRPRPRPDDAPRP, the “shrunken log2 fold change” value amounted to 0.0602.
To RRIRARPPRLPRPRPRPWNQPRP belongs -0.247; to RRIRIRPPRLPRPRPRPQCAPRP, -0.272.
Then RRIRPRPPRLPRPRPRPIYGPRP, with -0.0498; and RRIRTRPPRLPRPRPRPYVDPRP, with 0.0214.
Then RRIRGRPPRLPRPRPRPMEEPRP, with 0.48; and RRIRARPPRLPRPRPRPKEMPRP, with 0.324; and RRIRYRPPRLPRPRPRPHNPPRP, with -1.15.
As for RRIRRRPPRLPRPRPRPEPDPRP, the “shrunken log2 fold change” value was found to be 0.879.
To RRIRCRPPRLPRPRPRPGVQPRP belongs -0.419; to RRIRSRPPRLPRPRPRPCDKPRP, -0.324.
Then RRIRVRPPRLPRPRPRPPLIPRP, with 1.02; and RRIRYRPPRLPRPRPRPKCEPRP, with -0.0192; and RRIRKRPPRLPRPRPRPDHPPRP, with 0.0127.
To RRIRIRPPRLPRPRPRPHDCPRP belongs -0.123; to RRIRRRPPRLPRPRPRPGSLPRP, -0.00238.
On to RRIRLRPPRLPRPRPRPADHPRP, for which the “shrunken log2 fold change” value was -0.53.
Then RRIRERPPRLPRPRPRPGCKPRP, with 0.0591; and RRIRRRPPRLPRPRPRPCVRPRP, with 0.11.
To RRIRNRPPRLPRPRPRPQVLPRP belongs -0.0163; to RRIRIRPPRLPRPRPRPVCPPRP, -0.0123.
In the case of RRIRARPPRLPRPRPRPTHHPRP, the “shrunken log2 fold change” value came to 0.468.
Then RRIRLRPPRLPRPRPRPKQRPRP, with 0.225; and RRIRFRPPRLPRPRPRPDSHPRP, with -0.495.
To RRIRMRPPRLPRPRPRPLWCPRP belongs 0.147; to RRIRPRPPRLPRPRPRPSNSPRP, -0.794; to RRIRVRPPRLPRPRPRPGNFPRP, -0.131.
To RRIRNRPPRLPRPRPRPIPKPRP belongs -0.0467; to RRIRCRPPRLPRPRPRPSNWPRP, 0.0114.
RRIRVRPPRLPRPRPRPCCGPRP: the “shrunken log2 fold change” value was -0.248.
Then RRIRARPPRLPRPRPRPPHRPRP, with 0.931; and RRIRRRPPRLPRPRPRPIMIPRP, with -0.105; and RRIRVRPPRLPRPRPRPRSGPRP, with 0.322.
To RRIRTRPPRLPRPRPRPYRPPRP belongs -0.2.
In the case of RRIRGRPPRLPRPRPRPPIGPRP, the “shrunken log2 fold change” value was determined as 0.735.
To RRIRHRPPRLPRPRPRPHNIPRP belongs -0.209; to RRIRPRPPRLPRPRPRPTEAPRP, -0.258; to RRIRCRPPRLPRPRPRPGCKPRP, 0.0416.
Then RRIRQRPPRLPRPRPRPDKCPRP, with 0.272.
To RRIRCRPPRLPRPRPRPHTMPRP belongs -0.371; to RRIRCRPPRLPRPRPRPERFPRP, 0.00138; to RRIRIRPPRLPRPRPRPGYKPRP, -0.231.
RRIRKRPPRLPRPRPRPLAIPRP: the “shrunken log2 fold change” value turned out to be 0.0828.
For RRIRFRPPRLPRPRPRPMDKPRP, the “shrunken log2 fold change” value was -0.301.
In the case of RRIRGRPPRLPRPRPRPCSQPRP, the “shrunken log2 fold change” value was found to be 0.19.
Then RRIRSRPPRLPRPRPRPTDLPRP, with -0.464; and RRIRWRPPRLPRPRPRPCTIPRP, with -0.138.
To RRIRYRPPRLPRPRPRPFRNPRP belongs -0.462; to RRIRARPPRLPRPRPRPHATPRP, 1.01.
Then RRIRIRPPRLPRPRPRPAYGPRP, with -0.253.
With RRIRTRPPRLPRPRPRPSWIPRP, the “shrunken log2 fold change” value is -0.525.
To RRIRSRPPRLPRPRPRPVDNPRP belongs -0.493; to RRIRHRPPRLPRPRPRPATTPRP, -0.101; to RRIRSRPPRLPRPRPRPRMHPRP, 0.173.
Then RRIRNRPPRLPRPRPRPSDNPRP, with -0.494; and RRIRVRPPRLPRPRPRPQRIPRP, with -0.544; and RRIRSRPPRLPRPRPRPGYKPRP, with -0.084.
Then RRIRERPPRLPRPRPRPRPQPRP, with 0.61.
For the sequence RRIRCRPPRLPRPRPRPVMNPRP, the “shrunken log2 fold change” value was -0.0483.
To RRIRHRPPRLPRPRPRPKSEPRP belongs -0.00614; to RRIRPRPPRLPRPRPRPIYVPRP, -0.348.
Then RRIRLRPPRLPRPRPRPPNWPRP, with 0.377; and RRIRCRPPRLPRPRPRPMFIPRP, with -1.16; and RRIRWRPPRLPRPRPRPGRWPRP, with 0.742.
To RRIRKRPPRLPRPRPRPWCDPRP belongs -0.377; to RRIRQRPPRLPRPRPRPTMWPRP, 0.16; to RRIRIRPPRLPRPRPRPRVKPRP, -0.0816.
For the sequence RRIRERPPRLPRPRPRPDWPPRP, the “shrunken log2 fold change” value was determined as 0.108.
Then RRIRDRPPRLPRPRPRPPKYPRP, with -0.47.
On to RRIRVRPPRLPRPRPRPDLPPRP, for which the “shrunken log2 fold change” value is -0.377.
Then RRIRNRPPRLPRPRPRPFIRPRP, with -0.111.
To RRIRARPPRLPRPRPRPHCKPRP belongs 0.0852; to RRIRSRPPRLPRPRPRPHPTPRP, 0.129; to RRIRCRPPRLPRPRPRPIAFPRP, -0.195.
As to RRIRTRPPRLPRPRPRPGCRPRP, the “shrunken log2 fold change” value is 0.235.
To RRIRKRPPRLPRPRPRPYEYPRP belongs 0.0169; to RRIRERPPRLPRPRPRPGWLPRP, 0.256; to RRIRMRPPRLPRPRPRPVSLPRP, 0.422.
Consider RRIRKRPPRLPRPRPRPHCLPRP, for which the “shrunken log2 fold change” value was -0.0309.
To RRIRMRPPRLPRPRPRPVQGPRP belongs 0.0203; to RRIRHRPPRLPRPRPRPHIFPRP, -0.308.
As for RRIRPRPPRLPRPRPRPGCYPRP, the “shrunken log2 fold change” value turned out to be 0.189.
To RRIRGRPPRLPRPRPRPFSMPRP belongs 0.169; to RRIRWRPPRLPRPRPRPGDTPRP, -0.0199; to RRIRFRPPRLPRPRPRPQTTPRP, 0.00489.
To RRIRYRPPRLPRPRPRPFTYPRP belongs -0.529.
To RRIRSRPPRLPRPRPRPDPPPRP belongs 0.746; to RRIRVRPPRLPRPRPRPWGQPRP, -0.191; to RRIRHRPPRLPRPRPRPYCHPRP, -0.0851.
RRIRNRPPRLPRPRPRPWQFPRP: the “shrunken log2 fold change” value is -0.0175.
To RRIRGRPPRLPRPRPRPKSRPRP belongs 0.0451; to RRIRPRPPRLPRPRPRPAESPRP, 0.44.
To RRIRARPPRLPRPRPRPQNKPRP belongs -0.232; to RRIRVRPPRLPRPRPRPVTNPRP, -0.68.
To RRIRNRPPRLPRPRPRPPCFPRP belongs -0.00581.
With RRIRTRPPRLPRPRPRPPLIPRP, the “shrunken log2 fold change” value was 0.0432.
Regarding RRIRCRPPRLPRPRPRPYSKPRP, the “shrunken log2 fold change” value is -0.192.
To RRIRIRPPRLPRPRPRPMIGPRP belongs -0.477; to RRIRCRPPRLPRPRPRPNGCPRP, -0.0116.
To RRIRSRPPRLPRPRPRPVPYPRP belongs -0.248.
On to RRIRNRPPRLPRPRPRPPWKPRP, for which the “shrunken log2 fold change” value is -0.0649.
Then RRIRRRPPRLPRPRPRPIEMPRP, with 0.0754; and RRIRARPPRLPRPRPRPYQEPRP, with 0.0175.
Consider RRIRKRPPRLPRPRPRPPEKPRP, for which the “shrunken log2 fold change” value is 0.00179.
Then RRIRTRPPRLPRPRPRPPWVPRP, with 0.128.
For RRIRARPPRLPRPRPRPEQVPRP, the “shrunken log2 fold change” value came out at 0.453.
Then RRIRTRPPRLPRPRPRPCHTPRP, with -0.166; and RRIRCRPPRLPRPRPRPTHIPRP, with -0.326.
As to RRIRARPPRLPRPRPRPVYCPRP, the “shrunken log2 fold change” value was -0.175.
On to RRIRNRPPRLPRPRPRPPLKPRP, for which the “shrunken log2 fold change” value was determined as 0.0326.
To RRIRQRPPRLPRPRPRPRYQPRP belongs -0.0107.
Then RRIRARPPRLPRPRPRPWYVPRP, with -0.0927; and RRIRNRPPRLPRPRPRPRIFPRP, with -0.442.
Then RRIRQRPPRLPRPRPRPLYDPRP, with -0.226; and RRIRMRPPRLPRPRPRPPFAPRP, with 1.07.
Take RRIRNRPPRLPRPRPRPTVWPRP: the “shrunken log2 fold change” value was determined as 0.563.
To RRIRERPPRLPRPRPRPVRHPRP belongs 0.131.
To RRIRWRPPRLPRPRPRPFHGPRP belongs -0.229; to RRIRQRPPRLPRPRPRPKCNPRP, -0.472; to RRIRFRPPRLPRPRPRPCIWPRP, 0.25.
Then RRIRVRPPRLPRPRPRPARQPRP, with 0.365; and RRIRSRPPRLPRPRPRPLAHPRP, with -0.0709.
For RRIRQRPPRLPRPRPRPTLDPRP, the “shrunken log2 fold change” value was determined as 0.476.
Then RRIRHRPPRLPRPRPRPPIKPRP, with -0.16; and RRIRERPPRLPRPRPRPNPLPRP, with -0.0696.

These data come from the supplement of paper PMC9112550, “Optimization of the antimicrobial peptide Bac7 by deep mutational scanning” (BMC Biology, 2022).
